Our source for the EC50 values is patent US20100292089A1 (CYTOS BIOTECHNOLOGY, published 2010).

Residue numbers refer to the chain shown, from its start.

Sequences and labels used below:
T1: Qβ (RNA bacteriophage Qbeta, UniProt P03615 2-133)
T1 construct: The description says it is a VLP of RNA bacteriophage Qbeta; also called Qbeta; VLP of RNA bacteriophage Qbeta
T1 sequence: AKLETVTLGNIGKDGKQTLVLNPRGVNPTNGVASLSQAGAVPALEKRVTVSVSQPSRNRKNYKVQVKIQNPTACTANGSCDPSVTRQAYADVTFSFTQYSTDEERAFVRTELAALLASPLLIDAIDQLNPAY

B1: Qb#8 whole IgG2 (antibody, V domains shown)
VH: QVQLQESGGGWVQSGGSLRLSCAASGFSFSSYAMSWVRQAPGKGLEWVSAMSPIGGSTFYADSVKGRFTISRDNSKNTLFLQMNSLRAEDTAVYYCAKDAVVTAVGLGRYFDLWGRGTLVSVSS
VL: ELVVTQEPSVSGAPGQSVTISCTGGSSNIGASYDVHWYKQLPGAAPILLIYANYIRPSGVPDRFSASKSGTSASLAITGLQAEDEADYYCQSYDSSLSGVVFGGGTKLTVLG
notes: domain: γ2 heavy chain constant region; also called Qβ#8 IgG2; pCB15-Qb#8-IgG2 product; not shown: human κ light chain constant region (vector pCMV-LC)
B2: Qb#5 whole IgG2 (antibody, V domains shown)
VH: EVQLVQSGPGLVKPSETLSLTCTVSGGSISSTSYSWGWIRQPPGKGLEWIATVSYSGRSYSNPSLKSRVTTSVDTSKNQFSLRLGSVTAADTAVYYCARLYYIWRSYHSGRFDYWGQGTLVPVSS
VL: ELVLTQPPSVSGAPGQRVSISCTGSSSNIGARYDVHWYQQLPGTAPKLLIYGNTNRPSGVPDRFSGSKSGSSASLAITGLQAEDEADYYCQSYDRSLSGVVFGGGTKLTVLG
notes: domain: γ2 heavy chain constant region; also called Qβ#5 IgG2; pCB15-Qb#5-IgG2 product; not shown: human κ light chain constant region (vector pCMV-LC)
B3: Qb#3 whole IgG2 (antibody, V domains shown)
VH: QVQLQESGPGLVKPSETLSLTCTVSGGSISSGNYYWSWIRQTPEKGLEWLGYVHYTGSSKLNPSLKSRVTISVDTYTNQFSLSLSSMTAADTAVYYCARGKNCANDICYIGSWFDPWGQGTLVTVSS
VL: ELVMTQSPSSLSASVGDRVTITCRASQGVSRALAWYQQKPGNPPKLLIYDASNLQSGVPSRFSGGGSGTEFILTISSLQPEDFATYYCQQYNAYPWTFGQGTKLEIK
notes: domain: γ2 heavy chain constant region; also called Qβ#3 IgG2; pCB15-Qb#3-IgG2 product; not shown: human κ light chain constant region (vector pCMV-LC)
B4: Qb#2 whole IgG2 (antibody, V domains shown)
VH: B3 VH with Q1E, Q5L
VL: ELGLTQPPSVSGAPGQRVTISCTGSSSNIGRFDVHWYQQLPGTAPKLLIYGNTNRPSGVPDRFSGSKSGSSASLAITGLQAEDEADYYCQSYDRSLSGVVFGGGTQLTVLG
notes: domain: γ2 heavy chain constant region; also called Qβ#2 IgG2; pCB15-Qb#2-IgG2 product
B5: scFv-Qb#8-Fc (Fc fusion)
scFv: DADPAQAAELVVTQEPSVSGAPGQSVTISCTGGSSNIGASYDVHWYKQLPGAAPILLIYANYIRPSGVPDRFSASKSGTSASLAITGLQAEDEADYYCQSYDSSLSGVVFGGGTKLTVLGGGSSRSSSSGGGGSGGGGQVQLQESGGGWVQSGGSLRLSCAASGFSFSSYAMSWVRQAPGKGLEWVSAMSPIGGSTFYADSVKGRFTISRDNSKNTLFLQMNSLRAEDTAVYYCAKDAVVTAVGLGRYFDLWGRGTLVSVSSASTKGPSVTSGQAGRKLTHTCPPCPAPEAEGAPSVFLFPPKPKDTLMISRTPEVTCVVVDVSHEDPEVKFNWYVDGVEVHNAKTKPREEQYNSTYRVVSVLTVLHQDWLNGKEYKCKVSNKALPASIEKTISKAKGQPREPQVYTLPPSRDELTKNQVSLTCLVKGFYPSDIAVEWESNGQPENNYKTTPPVLDSDGSFFLYSKLTVDKSRWQQGNVFSCSVMHEALHNHYTQKSLSLSPGK
notes: The entry may contain the signal peptide; also called pCEP/scFvQb#8-Fc product
B6: scFv-Qb#3-Fc (Fc fusion)
scFv: DADPAQAAELVMTQSPSSLSASVGDRVTITCRASQGVSRALAWYQQKPGNPPKLLIYDASNLQSGVPSRFSGGGSGTEFILTISSLQPEDFATYYCQQYNAYPWTFGQGTKLEIKGGSSRSSSSGGGGSGGGGQVQLQESGPGLVKPSETLSLTCTVSGGSISSGNYYWSWIRQTPEKGLEWLGYVHYTGSSKLNPSLKSRVTISVDTYTNQFSLSLSSMTAADTAVYYCARGKNCANDICYIGSWFDPWGQGTLVTVSSASTKGPSVTSGQAGRKLTHTCPPCPAPEAEGAPSVFLFPPKPKDTLMISRTPEVTCVVVDVSHEDPEVKFNWYVDGVEVHNAKTKPREEQYNSTYRVVSVLTVLHQDWLNGKEYKCKVSNKALPASIEKTISKAKGQPREPQVYTLPPSRDELTKNQVSLTCLVKGFYPSDIAVEWESNGQPENNYKTTPPVLDSDGSFFLYSKLTVDKSRWQQGNVFSCSVMHEALHNHYTQKSLSLSPGK
notes: The entry may contain the signal peptide; also called pCEP/scFvQb#3-Fc product
B7: scFv-Qb#2-Fc (Fc fusion)
scFv: DADPAQAAELGLTQPPSVSGAPGQRVTISCTGSSSNIGRFDVHWYQQLPGTAPKLLIYGNTNRPSGVPDRFSGSKSGSSASLAITGLQAEDEADYYCQSYDRSLSGVVFGGGTQLTVLGGGSSRSSSSGGGGSGGGGEVQLLESGPGLVKPSETLSLTCTVSGGSISSGNYYWSWIRQTPEKGLEWLGYVHYTGSSKLNPSLKSRVTISVDTYTNQFSLSLSSMTAADTAVYYCARGKNCANDICYIGSWFDPWGQGTLVTVSSASTKGPSVTSGQAGRKLTHTCPPCPAPEAEGAPSVFLFPPKPKDTLMISRTPEVTCVVVDVSHEDPEVKFNWYVDGVEVHNAKTKPREEQYNSTYRVVSVLTVLHQDWLNGKEYKCKVSNKALPASIEKTISKAKGQPREPQVYTLPPSRDELTKNQVSLTCLVKGFYPSDIAVEWESNGQPENNYKTTPPVLDSDGSFFLYSKLTVDKSRWQQGNVFSCSVMHEALHNHYTQKSLSLSPGK
notes: also called pCEP/scFvQb#2-Fc product
B8: scFv-Qb#5-Fc (Fc fusion)
scFv: DADPAQAAELVLTQPPSVSGAPGQRVSISCTGSSSNIGARYDVHWYQQLPGTAPKLLIYGNTNRPSGVPDRFSGSKSGSSASLAITGLQAEDEADYYCQSYDRSLSGVVFGGGTKLTVLGGGSSRSSSSGGGGSGGGGEVQLVQSGPGLVKPSETLSLTCTVSGGSISSTSYSWGWIRQPPGKGLEWIATVSYSGRSYSNPSLKSRVTTSVDTSKNQFSLRLGSVTAADTAVYYCARLYYIWRSYHSGRFDYWGQGTLVPVSSASTKGPSVTSGQAGRKLTHTCPPCPAPEAEGAPSVFLFPPKPKDTLMISRTPEVTCVVVDVSHEDPEVKFNWYVDGVEVHNAKTKPREEQYNSTYRVVSVLTVLHQDWLNGKEYKCKVSNKALPASIEKTISKAKGQPREPQVYTLPPSRDELTKNQVSLTCLVKGFYPSDIAVEWESNGQPENNYKTTPPVLDSDGSFFLYSKLTVDKSRWQQGNVFSCSVMHEALHNHYTQKSLSLSPGK
notes: The entry may contain the signal peptide; also called pCEP/scFvQb#5-Fc product
B9: Qb#5 Fab fragment (Fab, V domains shown)
VH: B2 VH
VL: B2 VL
notes: domain: γ2 heavy chain Fd region; The Fd part is from human γ2; also called Qβ#5 Fab; pCB15-Qb#5-Fab product; not shown: human κ light chain constant region (vector pCMV-LC)
B10: Qb#3 Fab fragment (Fab, V domains shown)
VH: B3 VH
VL: B3 VL
notes: domain: γ2 heavy chain Fd region; The Fd part is from human γ2; also called Qβ#3 Fab; pCB15-Qb#3-Fab product; not shown: human κ light chain constant region (vector pCMV-LC)
B11: Qb#2 Fab fragment (Fab, V domains shown)
VH: B3 VH with Q1E, Q5L
VL: B4 VL
notes: domain: γ2 heavy chain Fd region; The Fd part is from human γ2; also called Qβ#2 Fab; pCB15-Qb#2-Fab product; not shown: human κ light chain constant region (vector pCMV-LC)

For the first experiment, the target named is T1, Qβ. Put plainly: ELISA, Qβ coated, purified IgG2; range of concentrations of half-maximal binding. On the technique in general: ELISA stands for enzyme-linked immunosorbent assay.
By EC50 is commonly meant the midpoint of the concentration-response curve. The molecule B1 gave an EC50 of 0.456 to 1.1 nM.

Molecule B2 came in with an EC50 of 0.021 to 0.054 nM. For the molecule B3, the EC50 lay within 0.015 to 0.037 nM. B4 had a concentration for a half-maximal effect (EC50) of 0.025 to 0.056 nM.

In the next experiment the target is T1, Qβ. Put plainly: ELISA, Qβ coated, purified scFv-Fc titrated; concentration of half-maximal binding.
With B5, the 50% effective concentration (EC50) was 0.163 nM. The same measure, in the same setting: the result for B6 reads 0.035 nM; that for B7, 0.051 nM. The molecule B8 yielded an EC50 of 0.052 nM.

The target of a further experiment is T1, Qβ. Put plainly: ELISA, Qβ coated, purified Fab; range of concentrations of half-maximal binding.
As to B9, the half-maximal effective concentration (EC50) was in the range of 0.082 to 0.236 nM. B10: the 50% effective concentration (EC50) is 0.077 to 0.239 nM.

Take B11: the half-maximal effective concentration (EC50) is 0.261 to 0.454 nM.
